According to IntAct's records for PubMed 20739936:

B1: Borealin (Homo sapiens), Q53HL2 (parent)
chain: MAPRKGSSRVAKTNSLRRRKLASFLKDFDREVEIRIKQIESDRQNLLKEVDNLYNIEILRLPKALREMNWLDYFALGGNKQALEEAATADLDITEINKLTAEAIQTPLKSAKTRKVIQVDEMIVEEEEEEENERKNLQTARVKRCPPSKKRTQSIQGKGKGKRSSRANTVTPAVGRLEVSMVKPTPGLTPRFDSRVFKTPGLRTPAAGERIYNISGNGSPLADSKEIFLTVPVGGGESLRLLASDLQRHSIAQLDPEALGNIKKLSNRLAQICSSIRTHK
B2: Chromosomal passenger complex protein bir1 (Schizosaccharomyces pombe (strain ATCC 38366 / 972)), O14064 (parent)
chain: MKPITSSSKRRWNRFRREMCNYSKRLDTFQKKKWPRAKPTPETLATVGFYYNPISESNSEERLDNVTCYMCTKSFYDWEDDDDPLKEHITHSPSCPWAYILSSKNNPNQNPQAAALTKCREQTFVDKVWPYTNRPDYHCEPSVMAASGFVYNPTADAKDAAHCLYCDINLHDWEPDDDPYTEHKRRRADCVFFTWKDPNSLSPTKLSFLSTSNIDPEDLTEDNSILPVSPTRDSTKSHKTLNFSPSRKNNLNARPLTMSLYTNTSEEKDSQPTRAPQSPTKPVLLTAPRRKNKSPKKSKPAVFKPVKPIFSDEDEDDDDLTASQPFSKGICNDSMQVAKKNFTEEIPLKEDEKDNELEHLVSPATSVHTTVSDITGHQSVTDESDEQNNCMSTPPKIEIESKIEEEISVVSKSKEISSSVSSVGKEQNHTEKQVAIETPEQQKVEKEDEHLNLQGSFIEESTKQPISSKPSTSSPDMTDAATGGRVSSSSFRDKILQTNFSPRSTIDSFSNISKKRNSEEANDENDETNLKIPIPEKKRKFQEVLQSKNILVSSTEDSHEPVKVTEDSQTAIHVSKFEDLENKSMESEQSLQLLSESENDDKPLIDLIPLLAIKRKDNLVSGVLEKGKSTSTSKTKFDTSIVDFIEKPKTEISEVLPEEKRKAICDESQTVRVSIDRGVTKTRDVSSPVSDEKSENVNHEEANSGHTVMNVHSSLDPQPIVQPNELESGSYLKDLPDRNVGNSEKVTFQEDDINSPKLQSKNNQTVEAVNTETSDKLQEKEANHELENIEKIEEKLTEVDKVSLSDAFPDQEIKNSRTSVQNGTRSVSKNTPEKETKVDKIDNVSKKDVETSPGSCETSSAFAKTYAEKEVTSINLPSVRKPLDESYYDHSISPFDPLCQSSFLAPQTPVKSKHALPLVEANAPPWEPIDFSSLLESPVPNPVEPNKLSEKELDMTVEQWIKFMYAKCAKEFEEACEEKIEWLLEEGKRAEEYIQNL
partner: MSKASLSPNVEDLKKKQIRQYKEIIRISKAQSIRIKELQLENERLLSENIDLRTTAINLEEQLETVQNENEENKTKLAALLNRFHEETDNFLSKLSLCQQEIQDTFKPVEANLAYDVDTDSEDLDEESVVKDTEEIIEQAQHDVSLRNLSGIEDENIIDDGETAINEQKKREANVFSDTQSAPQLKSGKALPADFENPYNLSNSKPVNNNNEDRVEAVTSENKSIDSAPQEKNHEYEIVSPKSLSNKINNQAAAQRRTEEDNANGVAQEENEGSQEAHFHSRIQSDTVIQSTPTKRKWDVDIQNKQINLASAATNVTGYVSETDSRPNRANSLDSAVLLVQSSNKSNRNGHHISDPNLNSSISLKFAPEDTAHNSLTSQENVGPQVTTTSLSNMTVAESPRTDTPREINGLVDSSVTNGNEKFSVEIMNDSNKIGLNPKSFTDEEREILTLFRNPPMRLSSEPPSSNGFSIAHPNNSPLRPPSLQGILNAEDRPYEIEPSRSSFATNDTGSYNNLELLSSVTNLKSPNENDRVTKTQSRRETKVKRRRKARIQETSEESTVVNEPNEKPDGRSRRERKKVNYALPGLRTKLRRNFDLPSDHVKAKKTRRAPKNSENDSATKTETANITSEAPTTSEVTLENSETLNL
B3: Borealin (Homo sapiens), Q53HL2 (parent)
chain: B1 chain
partner: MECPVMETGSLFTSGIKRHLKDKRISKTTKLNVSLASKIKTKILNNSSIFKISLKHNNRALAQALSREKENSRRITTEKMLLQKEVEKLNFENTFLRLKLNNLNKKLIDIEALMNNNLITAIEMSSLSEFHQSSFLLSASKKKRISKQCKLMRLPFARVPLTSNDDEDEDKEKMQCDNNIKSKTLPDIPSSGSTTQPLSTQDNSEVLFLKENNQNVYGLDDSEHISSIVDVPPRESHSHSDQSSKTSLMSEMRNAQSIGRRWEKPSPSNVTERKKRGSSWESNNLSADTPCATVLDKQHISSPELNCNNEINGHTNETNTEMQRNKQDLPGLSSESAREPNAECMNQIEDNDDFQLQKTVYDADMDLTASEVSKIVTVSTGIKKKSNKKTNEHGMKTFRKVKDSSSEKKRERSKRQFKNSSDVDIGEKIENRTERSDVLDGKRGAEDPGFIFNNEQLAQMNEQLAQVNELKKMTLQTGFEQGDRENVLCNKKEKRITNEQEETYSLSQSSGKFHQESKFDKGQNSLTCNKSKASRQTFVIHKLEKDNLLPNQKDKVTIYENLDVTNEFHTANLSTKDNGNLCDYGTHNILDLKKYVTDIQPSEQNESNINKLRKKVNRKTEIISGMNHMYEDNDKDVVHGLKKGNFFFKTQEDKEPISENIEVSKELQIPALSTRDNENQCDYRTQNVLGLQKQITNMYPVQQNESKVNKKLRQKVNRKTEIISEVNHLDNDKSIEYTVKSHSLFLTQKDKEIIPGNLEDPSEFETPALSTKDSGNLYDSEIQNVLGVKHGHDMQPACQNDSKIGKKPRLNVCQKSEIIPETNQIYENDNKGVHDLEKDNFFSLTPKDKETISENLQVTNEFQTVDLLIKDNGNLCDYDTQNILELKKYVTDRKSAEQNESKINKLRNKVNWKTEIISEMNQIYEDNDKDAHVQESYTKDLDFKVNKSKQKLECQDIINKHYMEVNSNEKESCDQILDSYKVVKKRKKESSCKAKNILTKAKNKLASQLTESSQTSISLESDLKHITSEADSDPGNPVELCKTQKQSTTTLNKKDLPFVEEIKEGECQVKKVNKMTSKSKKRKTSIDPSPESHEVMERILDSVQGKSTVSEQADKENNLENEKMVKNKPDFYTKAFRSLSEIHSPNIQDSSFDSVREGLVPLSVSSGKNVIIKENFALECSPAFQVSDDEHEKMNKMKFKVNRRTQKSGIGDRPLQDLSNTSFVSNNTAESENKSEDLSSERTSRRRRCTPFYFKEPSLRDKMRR

Variants of: B1
Conditions: with sgo1_human SGO1, Q5FBB7
Sequence of sgo1_human SGO1, Q5FBB7 (Q5FBB7 whole entry): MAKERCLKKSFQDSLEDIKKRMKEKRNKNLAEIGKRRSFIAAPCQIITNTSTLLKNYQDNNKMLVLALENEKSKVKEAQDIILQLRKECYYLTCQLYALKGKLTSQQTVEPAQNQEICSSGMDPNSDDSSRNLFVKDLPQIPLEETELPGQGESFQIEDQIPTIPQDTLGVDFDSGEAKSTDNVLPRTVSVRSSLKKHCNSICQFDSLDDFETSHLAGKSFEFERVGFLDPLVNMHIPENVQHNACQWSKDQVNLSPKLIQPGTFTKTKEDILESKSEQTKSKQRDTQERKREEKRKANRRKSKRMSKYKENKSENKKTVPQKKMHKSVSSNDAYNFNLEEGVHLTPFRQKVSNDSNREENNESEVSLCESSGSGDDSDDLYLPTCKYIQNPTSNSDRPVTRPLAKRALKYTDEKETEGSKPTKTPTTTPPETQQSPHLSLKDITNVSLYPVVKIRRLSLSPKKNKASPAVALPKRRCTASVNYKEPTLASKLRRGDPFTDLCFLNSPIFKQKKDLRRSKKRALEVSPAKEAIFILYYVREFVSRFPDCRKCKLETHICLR

How did the “effect of a mutation on the interaction” value turn out when MAPRKGSSRVAKTNSLRRRKLASFLKDFDREVEIRIKQIESDRQNLLKEVDNLYNIEILRLPKALREMNWLDYFALGGNKQALEEAATADLDITEINKLTAEAIQAPLKSAKTRKVIQVDEMIVEEEEEEENERKNLQTARVKRCPPSKKRTQSIQGKGKGKRSSRANTVAPAVGRLEVSMVKPAPGLAPRFDSRVFKAPGLRAPAAGERIYNISGNGAPLADSKEIFLTVPVGGGESLRLLASDLQRHSIAQLDPEALGNIKKLSNRLAQICSSIRTHK [T106A;T171A;T185A;T189A;T199A;T204A;S219A] was run?
Its value is “disrupting interaction strength”.

Variants of: B2
Conditions: with sgo2_schpo sgo2, O13734

S202A;S229A;S244A;S278A;S294A was tested. Which “effect of a mutation on the interaction” value did it give?
The value was “disrupting interaction”.

Variants of: B2
Conditions: with sgo2_schpo sgo2, O13734
Remark: another data set of the same source

For S202A;S229A;S244A;S278A;S294A;T393A;T831A;T908A, which “effect of a mutation on the interaction” value is on record?
Its value is “disrupting interaction”.

Variants of: B3
Conditions: with sgo2_human SGO2, Q562F6

Which “effect of a mutation on the interaction” value does the source give for MAPRKGSSRVAKTNSLRRRKLASFLKDFDREVEIRIKQIESDRQNLLKEVDNLYNIEILRLPKALREMNWLDYFALGGNKQALEEAATADLDITEINKLTAEAIQAPLKSAKTRKVIQVDEMIVEEEEEEENERKNLQTARVKRCPPSKKRTQSIQGKGKGKRSSRANTVAPAVGRLEVSMVKPAPGLAPRFDSRVFKAPGLRAPAAGERIYNISGNGAPLADSKEIFLTVPVGGGESLRLLASDLQRHSIAQLDPEALGNIKKLSNRLAQICSSIRTHK [T106A;T171A;T185A;T189A;T199A;T204A;S219A] here?
The value was “disrupting interaction strength”.
